To fix the notation:
B1: TSPAN10 (parent)
chain: EGCGPPLRRWLRANLAASGGYAIA

The values below come from the supplement of paper PMC10567573.
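Note: lentivirally expressed fusions sorted by FACS into six bins by GFP to DsRed ratio, PSI derived from sequencing read proportions per bin multiplied by bin number.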

The series covers variants of B1. The series can be described thus: protein stability index of a GFP-peptide fusion (GPS, HEK-293T) (PSI 1-6); higher = more stable. Conditions: c terminus: a fixed tail appended.
For EGCGPPLRRWLRHNLAASGGYAIA [A13H], the protein stability index was found to be 2.26. In the case of EGCGPPLRRWLRFNLAASGGYAIA [A13F] it was 2.46; in that of EGCGPPLRRWLRDNLAASGGYAIA [A13D], 1.83; in that of EGCGPPLRRWLRCNLAASGGYAIA [A13C], 2.93. In the case of EGCGPPLRRWLRINLAASGGYAIA [A13I] it was 1.67; in that of EGCGPPLRRWLRENLAASGGYAIA [A13E], 3.18. Take EGCGPPLRRWLRGNLAASGGYAIA [A13G]: the protein stability index is 3.35. In the case of EYCGPPLRRWLRANLAASGGYAIA [G2Y] it was 1.69; in that of EWCGPPLRRWLRANLAASGGYAIA [G2W], 2; in that of EVCGPPLRRWLRANLAASGGYAIA [G2V], 1.53.

In the case of EGCGPSLRRWLRANLAASGGYAIA [P6S], the protein stability index came out at 1.72.

With EGCGPRLRRWLRANLAASGGYAIA [P6R], the protein stability index was found to be 1.95. The figure for EGCGPMLRRWLRANLAASGGYAIA [P6M] is 1.84; for EGCGPNLRRWLRANLAASGGYAIA [P6N] it is 2.29; for EGCGPELRRWLRANLAASGGYAIA [P6E] it is 1.48. As for EGCGPTLRRWLRANLAASGGYAIA [P6T], the protein stability index was determined as 2.46. In the case of EGCGPQLRRWLRANLAASGGYAIA [P6Q] it was 1.89; in that of EGCGPKLRRWLRANLAASGGYAIA [P6K], 1.97; in that of EGCGPDLRRWLRANLAASGGYAIA [P6D], 1.94. In the case of EGCGPHLRRWLRANLAASGGYAIA [P6H], the protein stability index was determined as 1.62. The figure for EGCGPWLRRWLRANLAASGGYAIA [P6W] is 1.5; for EGCGPGLRRWLRANLAASGGYAIA [P6G] it is 1.86.

Consider EGCGPLLRRWLRANLAASGGYAIA [P6L], for which the protein stability index worked out at 1.03. As for EGCGPYLRRWLRANLAASGGYAIA [P6Y], the protein stability index was 1.62. In the case of EGCGPALRRWLRANLAASGGYAIA [P6A] it was 2.2. Consider EGCGPVLRRWLRANLAASGGYAIA [P6V], for which the protein stability index came out at 1.89.

As for EGCGEPLRRWLRANLAASGGYAIA [P5E], the protein stability index came to 3.75. The figure for EGCGDPLRRWLRANLAASGGYAIA [P5D] is 2.38. The figure for EGCGCPLRRWLRANLAASGGYAIA [P5C] is 3.5; for EGCGFPLRRWLRANLAASGGYAIA [P5F] it is 2.73; for EGCGHPLRRWLRANLAASGGYAIA [P5H] it is 1.7. For EGCGKPLRRWLRANLAASGGYAIA [P5K], the protein stability index amounted to 2.03. Consider EGCGAPLRRWLRANLAASGGYAIA [P5A], for which the protein stability index turned out to be 2.08. In the case of EGCGGPLRRWLRANLAASGGYAIA [P5G] it was 2.08; in that of EGCGRPLRRWLRANLAASGGYAIA [P5R], 2.48; in that of EGCGMPLRRWLRANLAASGGYAIA [P5M], 1.65.

In the case of EGCGTPLRRWLRANLAASGGYAIA [P5T], the protein stability index was 2.05. The figure for EGCGNPLRRWLRANLAASGGYAIA [P5N] is 2.02. In the case of EGCGSPLRRWLRANLAASGGYAIA [P5S] it was 1.44; in that of EGCGVPLRRWLRANLAASGGYAIA [P5V], 2.15; in that of EGCGYPLRRWLRANLAASGGYAIA [P5Y], 1.6. Regarding EGCGQPLRRWLRANLAASGGYAIA [P5Q], the protein stability index is 1.79. On to EGSGPPLRRWLRANLAASGGYAIA [C3S], for which the protein stability index came to 2.45.

Turning to EGWGPPLRRWLRANLAASGGYAIA [C3W], the protein stability index is 1.72. The figure for EGAGPPLRRWLRANLAASGGYAIA [C3A] is 2.3. The figure for EGHGPPLRRWLRANLAASGGYAIA [C3H] is 2.62. As to EGKGPPLRRWLRANLAASGGYAIA [C3K], the protein stability index came to 1.93. The figure for EGQGPPLRRWLRANLAASGGYAIA [C3Q] is 3.09; for EGGGPPLRRWLRANLAASGGYAIA [C3G] it is 2.11; for EGPGPPLRRWLRANLAASGGYAIA [C3P] it is 2.25. The figure for EGDGPPLRRWLRANLAASGGYAIA [C3D] is 2.37; for EGMGPPLRRWLRANLAASGGYAIA [C3M] it is 1.78; for EGIGPPLRRWLRANLAASGGYAIA [C3I] it is 2.83. In the case of EGEGPPLRRWLRANLAASGGYAIA [C3E] it was 2.82; in that of EGVGPPLRRWLRANLAASGGYAIA [C3V], 1.76; in that of EGRGPPLRRWLRANLAASGGYAIA [C3R], 1.4. Regarding EGLGPPLRRWLRANLAASGGYAIA [C3L], the protein stability index is 2.65.

In the case of EGTGPPLRRWLRANLAASGGYAIA [C3T], the protein stability index was found to be 1.7. As for EGFGPPLRRWLRANLAASGGYAIA [C3F], the protein stability index came out at 1.61. The figure for EGCGPPNRRWLRANLAASGGYAIA [L7N] is 2.67.

As for EGCGPPRRRWLRANLAASGGYAIA [L7R], the protein stability index was found to be 3.1. As for EGCGPPKRRWLRANLAASGGYAIA [L7K], the protein stability index is 1.97. The figure for EGCGPPSRRWLRANLAASGGYAIA [L7S] is 2.29; for EGCGPPGRRWLRANLAASGGYAIA [L7G] it is 1.82.

In the case of EGCGPPIRRWLRANLAASGGYAIA [L7I], the protein stability index was 1.39. The figure for EGCGPPARRWLRANLAASGGYAIA [L7A] is 1.91. In the case of EGCGPPFRRWLRANLAASGGYAIA [L7F] it was 1.4; in that of EGCGPPERRWLRANLAASGGYAIA [L7E], 1.78.

With EGCGPPHRRWLRANLAASGGYAIA [L7H], the protein stability index amounted to 2.39. The figure for EGCGPPVRRWLRANLAASGGYAIA [L7V] is 2.3; for EGCGPPCRRWLRANLAASGGYAIA [L7C] it is 1.87. The figure for EGCGPPPRRWLRANLAASGGYAIA [L7P] is 2.27; for EGCGPPDRRWLRANLAASGGYAIA [L7D] it is 2.33. In the case of EGCGPPWRRWLRANLAASGGYAIA [L7W] it was 2.05; in that of EGCGPPYRRWLRANLAASGGYAIA [L7Y], 2; in that of EGCGPPTRRWLRANLAASGGYAIA [L7T], 2.97.

Regarding EGCGPPMRRWLRANLAASGGYAIA [L7M], the protein stability index was 2.39. In the case of EGCGPPQRRWLRANLAASGGYAIA [L7Q] it was 1.36; in that of EGCGPPLRRWLYANLAASGGYAIA [R12Y], 2.84. In the case of EGCGPPLRRWLFANLAASGGYAIA [R12F] it was 2.29. In the case of EGCGPPLRRWLLANLAASGGYAIA [R12L] it was 3.2; in that of EGCGPPLRRWLSANLAASGGYAIA [R12S], 2.58; in that of EGCGPPLRRWLDANLAASGGYAIA [R12D], 1.8. On to EGCGPPLRRWLIANLAASGGYAIA [R12I], for which the protein stability index was 2.82. With EGCGPPLRRWLMANLAASGGYAIA [R12M], the protein stability index was found to be 1.9. In the case of EGCGPPLRRWLGANLAASGGYAIA [R12G] it was 1.82; in that of EGCGPPLRRWLQANLAASGGYAIA [R12Q], 2.17; in that of EGCGPPLRRWLNANLAASGGYAIA [R12N], 1.73. EGCGPPLRRWLTANLAASGGYAIA [R12T]: the protein stability index stood at 1.82. As for EGCGPPLRRWLEANLAASGGYAIA [R12E], the protein stability index came to 2.23. In the case of EGCGPPLRRWLPANLAASGGYAIA [R12P] it was 2.5; in that of EGCGPPLRRWLHANLAASGGYAIA [R12H], 2.47; in that of EGCGPPLRRWLWANLAASGGYAIA [R12W], 3.67. In the case of EGCGPPLRRWLKANLAASGGYAIA [R12K] it was 2.92.
